# Measurements published in paper PMC5429695, “Assembly of Ruminococcus flavefaciens cellulosome revealed by structures of two cohesin-dockerin complexes” (Scientific Reports, 2017).
# B1: RfCohScaB3, ScaB cohesin 3 with C-terminal hexa-histidine tag, wild type (domain or fragment)
# chain: MPVANADVVFDFQNYTAKAGDEVTVDVLVDSKNKPISAMDVKFKVDSPLTIEEIDKESLAFNTTVMTNMAILGANFKSLDDKGEPLVPKDGAAVFTLYVNVPANTPDGTYYVGFNGKNEVHKSNDGSQFTVASKNGAITVGTPNEEG
# Columns and labels:
# Assay in all cases: ITC; 308 K; dockerin in the cell (stirred at 307 revolutions/min) titrated with 28 injections of 10 uL cohesin at 220 s intervals; proteins in 50 mM HEPES pH 7.5, 0.5 mM CaCl2, 0.5 mM TCEP; single-site model
# Settings in all cases: both partners purified
# [1] = target: T1, RfDoc1a L87A, thioredoxin A fusion (R. flavefaciens FD-1)
# T1 construct: numbers count on: the recombinant construct of the crystal structure (RfDoc1a numbering of PDB 5M2O); mutant of m3 (pHTP2 derivative); see the note of m3 on limits and numbering; source: E. coli, purified (IMAC, His GraviTrap)
# [2] = target: T2, RfDoc1a, group 1a dockerin, thioredoxin A fusion, wild type (R. flavefaciens FD-1)
# T2 construct: numbers count on: the recombinant construct of the crystal structure (RfDoc1a numbering, residues 23-96 seen in PDB 5M2O); also called Doc1aWT; source: E. coli, purified (IMAC, His GraviTrap)
# [3] = target: T3, RfDoc1a Q83A, thioredoxin A fusion (R. flavefaciens FD-1)
# T3 construct: numbers count on: the recombinant construct of the crystal structure (RfDoc1a numbering of PDB 5M2O); mutant of m3 (pHTP2 derivative); see the note of m3 on limits and numbering; source: E. coli, purified (IMAC, His GraviTrap)
# [4] = target: T4, RfDoc1a Q47A, thioredoxin A fusion (R. flavefaciens FD-1)
# T4 construct: numbers count on: the recombinant construct of the crystal structure (RfDoc1a numbering of PDB 5M2O); mutant of m3 (pHTP2 derivative); see the note of m3 on limits and numbering; source: E. coli, purified (IMAC, His GraviTrap)
# [5] = target: T5, RfDoc1a V43A + Q47A, thioredoxin A fusion (R. flavefaciens FD-1)
# T5 construct: numbers count on: the recombinant construct of the crystal structure (RfDoc1a numbering of PDB 5M2O); mutant of m3 (pHTP2 derivative); see the note of m3 on limits and numbering; source: E. coli, purified (IMAC, His GraviTrap)
# [6] = target: T6, RfDoc1a S40A, thioredoxin A fusion (R. flavefaciens FD-1)
# T6 construct: numbers count on: the recombinant construct of the crystal structure (RfDoc1a numbering of PDB 5M2O); mutant of m3 (pHTP2 derivative); see the note of m3 on limits and numbering; source: E. coli, purified (IMAC, His GraviTrap)
# [7] = target: T7, RfDoc1a I39A, thioredoxin A fusion (R. flavefaciens FD-1)
# T7 construct: numbers count on: the recombinant construct of the crystal structure (RfDoc1a numbering of PDB 5M2O); mutant of m3 (pHTP2 derivative); see the note of m3 on limits and numbering; source: E. coli, purified (IMAC, His GraviTrap)
# [8] = target: T8, RfDoc1a K54A, thioredoxin A fusion (R. flavefaciens FD-1)
# T8 construct: numbers count on: the recombinant construct of the crystal structure (RfDoc1a numbering of PDB 5M2O); mutant of m3 (pHTP2 derivative); see the note of m3 on limits and numbering; source: E. coli, purified (IMAC, His GraviTrap)
# [9] = target: T9, RfDoc1b, group 1b dockerin, thioredoxin A fusion, wild type (R. flavefaciens FD-1)
# T9 construct: group 1b dockerin (Doc1b), C-terminal component of protein WP_009982745, a family 9 glycoside hydrolase of R. flavefaciens FD-1, residues 783-862; numbers count on: the recombinant construct of the crystal structure (RfDoc1b numbering, residues 24-102 seen in PDB 5M2S); also called Doc1bWT; Doc1b WT; source: E. coli, purified (IMAC, His GraviTrap)
# [10] = target: T10, RfDoc1a V43A, thioredoxin A fusion (R. flavefaciens FD-1)
# T10 construct: numbers count on: the recombinant construct of the crystal structure (RfDoc1a numbering of PDB 5M2O); mutant of m3 (pHTP2 derivative); see the note of m3 on limits and numbering; source: E. coli, purified (IMAC, His GraviTrap)
binder,measurement,setting,value
B1,Ka,[1],2.81e+07 M⁻¹
same,dH,[1],-59.84 ± 0.19 kcal/mol
same,stoichiometry N,[1],1
same,Ka,[2],1.18e+08 M⁻¹
same,dH,[2],-50.68 ± 0.29 kcal/mol
same,stoichiometry N,[2],1
same,Ka,[3],1.54e+08 M⁻¹
same,dH,[3],-39.5 ± 0.83 kcal/mol
same,stoichiometry N,[3],1
same,Ka,[4],1.71e+07 M⁻¹
same,dH,[4],-48.27 ± 0.12 kcal/mol
same,stoichiometry N,[4],1
same,Ka,[5],436000 M⁻¹
same,dH,[5],-48.79 ± 0.39 kcal/mol
same,stoichiometry N,[5],1
same,Ka,[6],1.09e+08 M⁻¹
same,dH,[6],-46.6 ± 0.15 kcal/mol
same,stoichiometry N,[6],1
same,Ka,[7],3.86e+06 M⁻¹
same,dH,[7],-57.26 ± 0.12 kcal/mol
same,stoichiometry N,[7],1
same,Ka,[8],1.96e+07 M⁻¹
same,dH,[8],-59.73 ± 0.25 kcal/mol
same,stoichiometry N,[8],1
same,Ka,[9],1.03e+07 M⁻¹
same,dH,[9],-64.94 ± 0.44 kcal/mol
same,stoichiometry N,[9],1
same,Ka,[10],1.91e+06 M⁻¹
same,dH,[10],-52.08 ± 0.14 kcal/mol
same,stoichiometry N,[10],1
